# B1: Monoclonal antibody CNTO 95 (antibody, IgG1, V domains shown)
# VH: QVQLVESGGGVVQPGRSRRLSCAASGFTFSRYTMHWVRQAPGKGLEWVAVISFDGSNKYYVDSVKGRFTISRDNSENTLYLQVNILRAEDTAVYYCAREARGSYAFDIWGQGTMVTVSS
# VL: EIVLTQSPATLSLSPGERATLSCRASQSVSSYLAWYQQKPGQAPRLLIYDASNRATGIPARFSGSGSGTDFTLTISSLEPEDFAVYYCQQRSNWPPFTFGPGTKVDIK
# notes: also called C371A; Mab CNTO 95
# B2: CNTO 364 (CNTO 95-SPP-DM1) (antibody, human IgG1, V domains shown)
# VH: B1 VH
# VL: B1 VL
# modifications: maytansinoid DM1 linked through SPP (disulfide) to amino acid side chains, positions not given
# notes: Antibody-drug conjugate of CNTO 95 (human IgG1 kappa); also called CNTO 95-DM1; the conjugate
# B3: abciximab (Fab, V domains shown)
# VH: EVQLQQSGTVLARPGASVKMSCEASGYTFTNYWMHWVKQRPGQGLEWIGAIYPGNSDTSYIQKFKGKAKLTAVTSTTSVYMELSSLTNEDSAVYYCTLYDGYYVFAYWGQGTLVTVSA
# VL: EIVLTQSPVTLSVTPGDSVSLSCRASRDISNNLHWFQQTSHESPRLLIKYASQSMSGIPSRFSGSGSGTDFTLSINSVETEDFGMYFCQQTNSWPYTFGGGTKLEIK
# Assays:
# [1] = target: T1, alphaV subunit integrins on human tumor cells (HT29, A549, A2780) (human, UniProt P06756 31-1048); assay: flow cytometry on A549 human lung carcinoma cells, FITC anti-human antibody
# T1 construct: whole, on cells; the cell line of each number is named under assay; also called alphaV integrins on living cells
# T1 sequence (P06756 31-1048): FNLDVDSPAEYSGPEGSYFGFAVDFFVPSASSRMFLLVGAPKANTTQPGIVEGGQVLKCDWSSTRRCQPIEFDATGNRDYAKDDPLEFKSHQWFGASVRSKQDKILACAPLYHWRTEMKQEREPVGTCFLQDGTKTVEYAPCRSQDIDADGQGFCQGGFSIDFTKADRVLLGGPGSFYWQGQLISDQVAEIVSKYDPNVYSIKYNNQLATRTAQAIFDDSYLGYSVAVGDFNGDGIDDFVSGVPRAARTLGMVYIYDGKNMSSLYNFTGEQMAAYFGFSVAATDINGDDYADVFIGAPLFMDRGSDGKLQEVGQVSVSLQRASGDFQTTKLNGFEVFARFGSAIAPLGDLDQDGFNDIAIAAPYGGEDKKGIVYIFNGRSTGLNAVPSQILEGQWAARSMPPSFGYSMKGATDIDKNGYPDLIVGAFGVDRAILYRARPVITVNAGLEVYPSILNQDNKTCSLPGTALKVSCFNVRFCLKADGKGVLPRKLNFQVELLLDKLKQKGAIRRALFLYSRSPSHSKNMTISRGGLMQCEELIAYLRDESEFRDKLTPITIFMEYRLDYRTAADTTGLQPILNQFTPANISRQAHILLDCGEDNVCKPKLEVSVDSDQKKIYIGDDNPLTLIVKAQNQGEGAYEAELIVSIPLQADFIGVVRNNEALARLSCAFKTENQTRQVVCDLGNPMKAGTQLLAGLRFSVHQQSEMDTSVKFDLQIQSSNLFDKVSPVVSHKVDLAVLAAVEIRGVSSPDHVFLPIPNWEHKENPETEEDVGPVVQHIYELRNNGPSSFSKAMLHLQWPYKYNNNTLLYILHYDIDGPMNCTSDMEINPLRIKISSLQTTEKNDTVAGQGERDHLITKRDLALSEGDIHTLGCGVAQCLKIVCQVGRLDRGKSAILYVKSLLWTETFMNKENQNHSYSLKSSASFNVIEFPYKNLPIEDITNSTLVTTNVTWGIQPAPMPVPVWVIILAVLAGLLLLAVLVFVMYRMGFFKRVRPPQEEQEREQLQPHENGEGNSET
# Method: (§1) Cells: HT29 human colon carcinoma and A549 human lung carcinoma cells were from ATCC and maintained in alphaMEM supplemented with 10% fetal bovine serum (FBS). A2780 human ovarian carcinoma cells were obtained from National Cancer Institute. A2780 cells were cultured in RPMI 1640 medium containing 10% FBS. […] Absence of primary antibody or substitution of primary antibody with isotype matched antibody served as negative controls. Cells were immediately analyzed with a FACS Scan II flow cytometer (Becton Dickinson, Mountain View, Calif.). Data was analyzed with GraphPad Prism software using non-liner regression to determine the concentration at 50% maximal binding (Table 7).
# [2] = target: T2, alphaVbeta5 integrin (UniProt P06756 31-1048; P18084 24-799); assay: ELISA on alphaVbeta5 protein, absorbance against concentration
# T2 construct: Purified integrin coated on plates; also called αvβ5; alphaVbetaS protein
# T2 sequence (P06756 31-1048, chain 1 of 2): as the sequence (P06756 31-1048) above
# T2 sequence (P18084 24-799, chain 2 of 2): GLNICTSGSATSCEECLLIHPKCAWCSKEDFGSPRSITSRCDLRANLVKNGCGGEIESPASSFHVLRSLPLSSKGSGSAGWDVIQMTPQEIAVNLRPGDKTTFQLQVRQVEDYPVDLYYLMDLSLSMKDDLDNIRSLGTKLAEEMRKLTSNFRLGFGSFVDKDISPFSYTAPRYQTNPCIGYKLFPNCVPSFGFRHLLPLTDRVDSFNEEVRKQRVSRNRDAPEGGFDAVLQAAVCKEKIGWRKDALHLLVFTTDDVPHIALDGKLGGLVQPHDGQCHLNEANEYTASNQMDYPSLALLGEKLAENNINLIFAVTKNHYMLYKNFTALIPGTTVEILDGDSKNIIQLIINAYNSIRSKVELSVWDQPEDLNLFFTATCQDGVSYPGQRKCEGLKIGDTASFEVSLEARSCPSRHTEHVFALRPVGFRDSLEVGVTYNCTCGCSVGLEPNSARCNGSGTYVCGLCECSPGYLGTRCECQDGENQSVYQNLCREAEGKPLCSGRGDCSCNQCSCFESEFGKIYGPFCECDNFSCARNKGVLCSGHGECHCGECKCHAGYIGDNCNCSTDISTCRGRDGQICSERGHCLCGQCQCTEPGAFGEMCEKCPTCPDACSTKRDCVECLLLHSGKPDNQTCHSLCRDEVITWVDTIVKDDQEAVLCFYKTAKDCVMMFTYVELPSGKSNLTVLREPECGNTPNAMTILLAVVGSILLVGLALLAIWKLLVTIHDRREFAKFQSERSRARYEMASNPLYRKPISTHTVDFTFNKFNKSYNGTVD
# [3] = target: T3, alphaVbeta3 integrin (human, UniProt P06756 31-1048; P05106 27-788); assay: ELISA on alphaVbeta3 protein, absorbance against concentration
# T3 construct: Purified integrin coated on plates; also called αvβ3; αVβ3
# T3 sequence (P06756 31-1048, chain 1 of 2): as the sequence (P06756 31-1048) above
# T3 sequence (P05106 27-788, chain 2 of 2): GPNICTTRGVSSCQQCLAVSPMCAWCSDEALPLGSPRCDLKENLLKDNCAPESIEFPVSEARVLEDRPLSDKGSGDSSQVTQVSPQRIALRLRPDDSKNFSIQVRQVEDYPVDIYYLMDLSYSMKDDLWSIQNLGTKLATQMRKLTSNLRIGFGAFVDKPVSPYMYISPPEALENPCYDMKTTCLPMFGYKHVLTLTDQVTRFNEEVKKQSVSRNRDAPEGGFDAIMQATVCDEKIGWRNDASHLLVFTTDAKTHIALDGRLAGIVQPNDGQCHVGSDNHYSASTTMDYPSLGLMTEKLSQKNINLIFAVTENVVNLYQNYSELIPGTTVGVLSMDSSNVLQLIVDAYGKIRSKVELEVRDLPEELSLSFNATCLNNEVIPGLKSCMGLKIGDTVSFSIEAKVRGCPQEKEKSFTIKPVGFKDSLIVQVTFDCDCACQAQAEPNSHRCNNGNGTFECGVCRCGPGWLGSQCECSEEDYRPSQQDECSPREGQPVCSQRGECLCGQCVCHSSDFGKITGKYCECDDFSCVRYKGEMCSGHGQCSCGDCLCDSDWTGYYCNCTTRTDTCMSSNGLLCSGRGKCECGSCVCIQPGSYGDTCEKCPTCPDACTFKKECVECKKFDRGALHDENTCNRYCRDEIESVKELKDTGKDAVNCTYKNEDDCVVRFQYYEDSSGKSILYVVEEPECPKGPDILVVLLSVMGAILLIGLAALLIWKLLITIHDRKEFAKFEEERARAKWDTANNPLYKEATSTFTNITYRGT
# [4] = target: T3, alphaVbeta3 integrin; assay: saturation binding curve, 125-I CNTO 95 on αvβ3 coated plates
# Method: (§2) A375S2 and M21 cells express both αvβ₃ and αᵥβ₅, HT-29 cells express αvβ5. For comparison, other Mabs capable of binding integrins were used. The Kd was calculated from a saturation binding curve in each case using multiple replicates of multiple lots of antibody.
# [5] = target: T1, alphaV subunit integrins on human tumor …; assay: flow cytometry on A2780 human ovarian carcinoma cells, FITC anti-human antibody
# Method: as §1
# [6] = target: T3, alphaVbeta3 integrin; assay: ELISA, purified antibody on alphaVbeta3
# [7] = target: T1, alphaV subunit integrins on human tumor …; assay: flow cytometry on HT29 human colon carcinoma cells, FITC anti-human antibody
# Method: as §1
# [8] = target: T2, alphaVbeta5 integrin; assay: saturation binding curve, 125-I CNTO 95 on αvβ5 coated plates
# Method: as §2
# [9] = target: T3, alphaVbeta3 integrin; assay: saturation binding curve on αvβ3 coated plates
Binder,EC50 [1],Kd [2],Kd [3],Kd [4],EC50 [5],EC50 [6],EC50 [7],Kd [8],Kd [9]
B1,180 µg/mL,0.03 nM,~3 nM,0.21 nM,170 µg/mL,0.7 µg/mL,140 µg/mL,0.025 nM,–
B2,270 µg/mL,0.035 nM,~3 nM,–,270 µg/mL,–,190 µg/mL,–,–
B3,–,–,–,–,–,–,–,–,0.25 nM

# — patent US20060127407A1 (IMMUNOGEN, published 2006)
